Test results: US20230265169A1 (US Dept. of Health and Human Services, published 2023)
Substitutions are numbered along the chain they refer to.

T1: MERS-CoV spike protein on live MERS-CoV (EMC, KNIH-002, KNIH-016 and KNIH-042 strains) (MERS-CoV)
T1 chain: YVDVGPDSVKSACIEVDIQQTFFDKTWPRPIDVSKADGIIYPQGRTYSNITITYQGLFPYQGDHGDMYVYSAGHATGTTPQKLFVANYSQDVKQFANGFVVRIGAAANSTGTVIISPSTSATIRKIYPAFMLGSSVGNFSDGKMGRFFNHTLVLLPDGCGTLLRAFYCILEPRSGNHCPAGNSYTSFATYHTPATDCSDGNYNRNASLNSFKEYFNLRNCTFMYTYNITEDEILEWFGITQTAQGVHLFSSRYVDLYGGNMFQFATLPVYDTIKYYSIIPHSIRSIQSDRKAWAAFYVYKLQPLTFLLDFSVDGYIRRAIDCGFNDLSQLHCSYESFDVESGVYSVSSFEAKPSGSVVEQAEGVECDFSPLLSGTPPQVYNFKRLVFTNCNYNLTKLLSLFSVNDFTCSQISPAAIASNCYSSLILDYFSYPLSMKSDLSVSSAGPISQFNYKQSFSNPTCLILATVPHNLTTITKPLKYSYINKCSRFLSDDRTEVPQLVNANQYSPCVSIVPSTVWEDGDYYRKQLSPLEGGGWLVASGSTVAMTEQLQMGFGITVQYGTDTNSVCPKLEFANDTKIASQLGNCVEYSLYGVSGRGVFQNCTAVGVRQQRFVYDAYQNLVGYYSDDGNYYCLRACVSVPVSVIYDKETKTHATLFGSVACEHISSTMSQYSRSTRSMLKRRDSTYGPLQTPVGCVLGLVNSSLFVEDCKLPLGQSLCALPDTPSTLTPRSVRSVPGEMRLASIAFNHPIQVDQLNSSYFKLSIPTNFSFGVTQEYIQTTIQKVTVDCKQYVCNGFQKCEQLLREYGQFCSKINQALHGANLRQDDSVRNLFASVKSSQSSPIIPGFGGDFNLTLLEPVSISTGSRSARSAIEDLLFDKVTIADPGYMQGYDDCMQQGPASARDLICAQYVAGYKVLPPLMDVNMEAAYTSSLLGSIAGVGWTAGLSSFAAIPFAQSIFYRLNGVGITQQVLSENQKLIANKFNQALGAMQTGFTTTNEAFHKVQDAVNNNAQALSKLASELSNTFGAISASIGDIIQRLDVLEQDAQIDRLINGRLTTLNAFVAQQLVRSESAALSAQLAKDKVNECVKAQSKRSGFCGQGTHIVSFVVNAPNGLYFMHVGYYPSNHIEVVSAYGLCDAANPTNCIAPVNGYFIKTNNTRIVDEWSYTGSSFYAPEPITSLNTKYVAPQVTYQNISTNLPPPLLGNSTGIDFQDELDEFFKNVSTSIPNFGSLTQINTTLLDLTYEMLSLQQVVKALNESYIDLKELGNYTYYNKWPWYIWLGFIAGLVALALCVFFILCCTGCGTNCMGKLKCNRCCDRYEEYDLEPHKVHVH

B1: 90-E5 antibody (antibody, V domains shown)
VH: QVQLVQSGAEVKKPGSSVKVSCKASGGTFSSYTINWVRQAPGQGLEWMGGIIPIFGTANYAQKFQGRVTITADASTSTAYMELSSLRSEDTAVYYCARVLLRSSSWFSSNWFDPWGQGTLVTVSS
VL: QSVLTQPPSVSGAPGQRVTISCTGSSSNIGAGYDVHWYQQLPGTAPKVLIYGNSNRPSGVPDRFSGSKSDTSASLAITGLQAEDEADYYCQSYDSSLSVVFGGGTKLTVLG
B2: 90-E6 antibody (antibody, V domains shown)
VH: EVQLVESGGGLVQPGRSLRLSCAASGFTFDDHAMHWVRQAPGKGLEWVSGFSWNSGSIGYADSVKGRFTISRDNAKNSLYLQMNSLRAEDTALYYCAKDRRSDYYFYGMDVWGQGTTVTVSS
VL: QSVLTQPPSVSAAPGQKVTISCSGSRSNIGNNYVSWYQQLPGTAPKLLIYDNNKRPSGIPDRFSGSKSGTSATLGITGLQTGDEADYYCGTWDSSLNAGVFGGGTKLTVLG
B3: 77-A6 antibody (antibody, V domains shown)
VH: EVQLLESGGGLVQPGGSLRLSCADSGLTFSSYAMSWVRQAPGKGLEWVSAISVSGGSTYYSDSVKGRFTISRDNSKNTLSLQMNSLRAEDTAVYYCVKARSIVGPFDYWGQGTLVTVSS
VL: B2 VL with V3A, R26S, Q39H, N53I, K54M, S94T, N97S, G99V
B4: 77-A5 antibody (antibody, V domains shown)
VH: QVQLVQSGAEVKKPGSSVKVSCKASGGTFRSHAISWVRQAPGQGLEWMGGIIPIFASANYAQKFQGRVTITADESTSTAYMDLSSLRSDDTAVYYCAKNVSPKSYSGRYSISYFYGVDVWGQGTTVTVSS
VL: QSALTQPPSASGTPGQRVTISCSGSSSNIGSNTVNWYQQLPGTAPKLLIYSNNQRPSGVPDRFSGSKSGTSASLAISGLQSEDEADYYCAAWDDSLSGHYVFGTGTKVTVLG
B5: 90-F2 antibody (antibody, V domains shown)
VH: QVQLVQSGAEVKKPGASVKVSCKASGYTFTTYYMHWVRQAPGQGLEWMGIINPSGGSTSYAQKFQGRVTMTRDTSTSTVYMELSSLRSEDTAVYYCARGAVVVILDYWGQGTLVTVSS
VL: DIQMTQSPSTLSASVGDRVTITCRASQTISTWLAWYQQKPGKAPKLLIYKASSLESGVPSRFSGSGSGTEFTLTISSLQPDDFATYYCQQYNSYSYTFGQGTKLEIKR
B6: 90-A3 antibody (antibody, V domains shown)
VH: QVQLVQSGAEVKKPGASVKVSCMTSGYTFTSYGISWVRQAPGQGLEWMGWISAYNGNTNYAQKLQGRVTMTTDTSTSTAYMELRSLRSDDTAVYYCARDRGAYWDCGGDCYLSAFDYWGQGTLVTVSS
VL: B2 VL with S2A, L4V, R26S, N97S, G99V
B7: 90-A9 antibody (antibody, V domains shown)
VH: QVQLVQSGAEVKKPGSSVKVSCKASGGTFSSFPISWVRQAPGQGLEWMGGIIPIFGAANYAQKFQGRVTITADESTSTAYMELSSLRSEDTAVYYCARNYEEIVVIPAIMNFGYWGQGTLVTVSS
VL: EIVLTQSPGTLSLSPGERATLSCRASQSVASSYLAWYQQKPGQAPRLLIYGTSSRATGIPDRFSGSGSGADFTLTISRLEPEDFAVYYCQQYGTSPLTFGGGTKVEIK
B8: 90-C4 antibody (antibody, V domains shown)
VH: QVQLQESGPGLVKPSGTLSLTCAVSGGSINSSNWWSWVRQPPGKGLEWIGEIYYSGSTNYNPSLKSRVTTSVDNSKNQFSLKLSSVTAADTAVYYCATFDSGGYNPNWFDPWGQGTLVTVSS
VL: QSALTQPPSVSGAPGQRVTISCTGSSSSIGAGYDVHWYQQLPGTAPKLLIYGNSNRPSGVPDRFSGSKSGTSASLAITGLQAEDEADYYCQSYDSSLSGYVFGTGTKVTVLG
B9: 90-F1 antibody (antibody, V domains shown)
VH: QVQLVQSGAEVKRPGSSVKVSCKTSGGTFNNNAINWVRQAPGQGLEWMGGIIPFFGIAKYAQKFQGRVTITADESTSTAYMELSSLRSEDTAVYYCARDLPRESSYGSGSYYTHYYAMDVWGQGTTVTVSS
VL: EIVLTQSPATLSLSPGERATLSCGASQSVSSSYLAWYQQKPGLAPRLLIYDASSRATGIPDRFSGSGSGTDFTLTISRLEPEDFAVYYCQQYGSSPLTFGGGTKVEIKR
B10: 90-B2 antibody (antibody, V domains shown)
VH: QVQLQESGPGLVKPSETLSLTCTVSGGSISSSSYYWGWIRQPPGKGLEWIGSIYYSGNTYYNPSLKSRVTISVDTSKNHFSLRLSSVTAADTAVYFCARSLPHYDSTGYLLYWGQGTLVTVSS
VL: EIVLTQSPATLSLSPGGRATLSCRASQSVSRYLAWYQQKPGRAPRLLIYDASNRAPGIPARFSGSGSGTDFTLTISSLEPEDFAVYYCQQRSNWPQTTFGPGTKVDIKR
B11: 90-B7 antibody (antibody, V domains shown)
VH: EVQLLESGGGLVKPGGSLRLSCAASGFTFGSYSMTWVRQAPGKGLEWVSSISSSSSYIYYADSVKGRFTISRDNAKNSLFLQMNSLRAEDTAVYYCARGNGYCSHNSCYKIGVWFDPWGQGTLVTVSS
VL: B2 VL with S2A, L4V, R26S, N97S, G99F, G103T, L107V

These binders were tested against T2, MERS-CoV RBD antigen (receptor binding domain, amino acids 377 to 588 of the spike protein) (MERS-CoV, UniProt K9N5Q8 377-588) (assay: not given).

| Binder | EC50 (read off the curve) [µg/mL] |
| --- | --- |
| B1 | ~0.07 |
| B2 | ~0.09 |
| B3 | ~0.06 |
| B4 | ~0.008 |
| B5 | ~0.07 |

The binders below were run against T2, MERS-CoV RBD antigen (receptor binding …) (assay: ELISA, RBD antigen coated).

| Binder | binding result |
| --- | --- |
| B6 | no binding (tested: up to 10 µg/ml) |
| B7 | no binding (tested: up to 10 µg/ml) |
| B8 | no binding (tested: up to 10 µg/ml) |

The binders below were run against T2, MERS-CoV RBD antigen (receptor binding …) (assay: SPR, RBD antigen on CM5 chip, antibody as analyte (called avidity)).

| Binder | Kd [nM] | koff [s⁻¹] | kon [M⁻¹ s⁻¹] |
| --- | --- | --- | --- |
| B3 | 0.673 | 3.15e-05 | 46700 |
| B4 | 0.161 | 2.08e-05 | 130000 |
| B9 | 0.072 | 2.71e-05 | 376000 |
| B5 | 5.86 | 0.0014 | 238000 |

What follows are binders tested against T2, MERS-CoV RBD antigen (receptor binding …) (assay: SPR, RBD antigen attached on a CM5 chip, antibody loaded, HBS-EP).

| Binder | binding result |
| --- | --- |
| B10 | no binding (tested: 500 nM) |
| B11 | no binding (tested: 500 nM) |

The binders below were run against MERS-CoV full-length spike trimer antigen (amino acids 1 to 1275 of the spike protein, lacking the … (MERS-CoV, UniProt K9N5Q8 18-1275)) (assay: not given).

| Binder | EC50 (read off the curve) [µg/mL] |
| --- | --- |
| B1 | ~0.01 |
| B8 | ~0.08 |

These binders were tested against T3, MERS-CoV S1 antigen (S1 domain, amino acids 1 to 757 of the spike protein) (MERS-CoV, UniProt K9N5Q8 18-757) (assay: SPR, S1 antigen on CM5 chip, antibody as analyte (called avidity)).
T3 construct: also called MERS-CoV S1 domain

| Binder | Kd [nM] | koff [s⁻¹] | kon [M⁻¹ s⁻¹] |
| --- | --- | --- | --- |
| B10 | ≤ 0.0751 | ≤ 1e-05 | 131000 |
| B11 | 0.153 | 0.000104 | 681000 |
| B3 | 0.695 | 4.43e-05 | 63800 |
| B4 | ≤ 0.0751 | ≤ 1e-05 | 133000 |
| B9 | 0.153 | 9.88e-05 | 648000 |
| B5 | 6.6 | 0.000882 | 134000 |

Target: T1, MERS-CoV spike protein on live MERS-CoV …
Experiment: cell-based or functional assay
Design: ND50 (PRNT with MERS-CoV): unit not given beside the values

| Binder | ND50 (PRNT with MERS-CoV) | ND50 antibody conc. (PRNT with MERS-CoV) [µg/mL] |
| --- | --- | --- |
| B1 | 6.6 | 1.51 |
| B10 | 39.5 | 0.25 |
| B2 | 0.68 | 14.8 |
| B11 | 14.9 | 0.67 |
| B3 | 95.7 | 0.1 |
| B6 | 0.63 | 15.8 |
| B7 | 0.58 | 17.3 |
| B8 | 0.78 | 12.8 |
| B4 | 35.6 | 0.28 |
| B9 | 956 | 0.01 |
| B5 | 54 | 0.19 |

What follows are binders tested against T3, MERS-CoV S1 antigen (S1 domain, amino …) (assay: not given).

| Binder | EC50 (read off the curve) [µg/mL] |
| --- | --- |
| B1 | ~0.03 |
